{
  "source": "paper PMC3079231",
  "about": "(International journal of mass spectrometry, 2011)",
  "proteins": {"B1": {"name": "Salmonella typhimurium AhpC T77I mutant (enzyme)", "chain": "SLINTKIKPFKNQAFKNGEFIEVTEKDTEGRWSVFFFYPADFTFVCPTELGDVADHYEELQKLGVDVYSVSTDTHFIHKAWHSSSETIAKIKYAMIGDPTGALTRNFDNMREDEGLADRATFVVDPQGIIQAIEVTAEGIGRDASDLLRKIKAAQYVAAHPGEVCPAKWKEGEATLAPSLDLVGKI", "modifications": "oxidized form: intersubunit disulfide (Cys-46 to Cys-165); reduced form (TCEP): free thiols"}, "B2": {"name": "Salmonella typhimurium AhpC T77V mutant (enzyme)", "chain": "B1 chain with I77V", "modifications": "oxidized form: intersubunit disulfide (Cys-46 to Cys-165); reduced form (TCEP): free thiols"}},
  "target": "the molecule itself",
  "experiment": "HDX-MS",
  "note": "Positions count from the first letter of the chain named. Names may count otherwise.",
  "data": [
    {"protein": "B1", "values": [
      {"measurement": "binding result", "value": "binds"}
    ]},
    {"protein": "B2", "values": [
      {"measurement": "binding result", "value": "binds"}
    ]}
  ]
}
